A word on the EC50: it is the concentration giving half of the maximal effect.

Assay [1] concerns the target recombinant λ6-variable domain light chain Jto in fibrillar form. Nature of the assay: EuLISA on plate-immobilized fibrils.
Assay [2] concerns the target fibrillar Aβ1-40 peptide (Homo sapiens (Human)) (UniProt P05067).
Assay [3] addresses recombinant λ6-variable domain light chain Jto in fibrillar form. Nature of the assay: binding to plate-immobilized fibrils.

Chain of fibrillar Aβ1-40 peptide (Homo sapiens (Human)) (P05067 672-711 limits assumed): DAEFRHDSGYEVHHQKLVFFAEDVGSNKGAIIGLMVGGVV

B1: antibody heavy chain F1 (protein)
heavy: AMDWTWSILFLVAAATGAHSQVQLVQSGAEVKKPGASVKVSCKASGYTFSSNGIIWVRQAPGQGLEWLGWISGYNGKTRYAQKVQGRVTITTDTSTSTAYMELRSLRSDDTAVYYCAREKTMVRGAISGYSDYWGQGTLVTVSSASTKGPSVFPLAPSSKSTSGGTAALGCLVKDYFPEPVTVSWNSGALTSGVHTFPAVLQSSGLYSLSSVVTVPSSSLGTQTYICNVNHKPSNTKVDKKRVEPKSCDKTHTCPPCPAPELLGGPSVFLFPPKPKDTLMISRTPEVTCVVVDVSHEDPEVKFNWYVDGVEVHNAKTKPREEQYNSTYRVVSVLTVLDHQDWLNGKEYKCKVSNKALPAPIEKTISKAKGQPREPQVYTLPPSREELMTKNQVSLTCLVKGFYPSDIAVEWESNGQPENNYKTTPPVLDSDGSFFLYSKLTVDKSRWQQGNVFSCSVMHEALHNHYTQKSLSLSPGK
In the case of B1, in assay [1], the EC50 was 24 nM and the Max. Eu3+ is 195 fmol. Moreover, the Aβ fibril growth (recruitment of soluble biotinylated Aβ monomer to plate-bound Aβ1-40 fibrils, EuLISA) in assay [2] turned out to be 1 µM. In assay [3], the affinity is 20 nM.

(Values after patent US20110002945A1.)
